Numbering of substitutions follows the chain as printed. Numbers in names are those of the source. Where “and” joins values, the source holds several entries; their conditions need not be identical. Identical values can stand only once. Like-named read-outs stand apart in the source and are kept apart here.
Assays:
[1] = molecular target: LPETG (primary) and GGG (secondary) substrates (Staphylococcus aureus, UniProt Q2FV99); settings: Frankel (2005); cited from earlier work
[2] = tested on: LPETG (primary) and GGG (secondary) substrates; settings: cited from earlier work
[3] = tested on: Ub-GGSLPETGGGHHHHHH and GGG-Ub; experiment: Comparison with Sortase: SrtA / SrtA5* catalyzed protein-protein ligation; settings: 3.13 μM each substrate, enzyme:substrate ratio 1:1, 37° C.
Experimental: (§1) (SEQ ID NO: 536) and GGG-Ub (SEQ ID NO: 666) were recorded. The Adriase assays were conducted with 3.13 μM and 100 μM substrate concentration and 0.0025 molar equivalents Adriase (SEQ ID NO: 380) in reaction buffer (50 mM acetic acid, 50 mM MES, 50 mM HEPES, 100 mM NaCl, 50 mM KCl, 5 mM TCEP, pH 7.0) at 50° C. The SrtA5* and SrtA assays were conducted with 3.13 μM and 100 μM substrate concentration and either 1 or 0.1 molar equivalents SrtA5* or SrtA (SEQ ID NO: 535 and 662) in Sortase buffer (50 mM Tris-HCl pH 7.5, 150 mM NaCl, 10 mM CaCl2) at 37° C. At various time points (0 s, 28 s, 55 s, 88 s, 126 s, 171 s, 225 s, 295 s, 393 s, 554 s, 1125 s, 1670 s and 2250 s), an aliquot of the reaction was mixed with 2% SDS. Samples were then separated on 12% polyacrylamide gels (Thermo) and stained with Coomassie blue. The band intensities of educt and product bands were quantified using ImageJ v1.52a, assuming that all ubiquitin molecules bind the coomassie dye in a similar manner. The results were used to plot the time courses for each experiment.

[4] = molecular target: M. jannaschii MtrA^Δ194-245 (Methanocaldococcus jannaschii, UniProt Q58261); settings: 1:1 molar mixture, 200 μM, Superdex S200, light scattering
M. jannaschii MtrA^Δ194-245, sequence (Q58261 1-189, stated change not applied): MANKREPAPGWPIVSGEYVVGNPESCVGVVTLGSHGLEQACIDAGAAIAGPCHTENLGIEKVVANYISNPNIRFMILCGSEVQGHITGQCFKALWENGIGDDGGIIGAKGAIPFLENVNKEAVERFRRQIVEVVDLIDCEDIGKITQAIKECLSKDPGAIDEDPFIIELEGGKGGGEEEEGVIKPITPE
Experimental: Data analysis was carried out with ASTRA v7.3.0.18 software (Wyatt).
For this purpose, size exclusion chromatography using 50 μl 200 μM M. jannaschii Adriase^ΔOB (SEQ ID NO: 132), M. jannaschii MtrA^Δ194-245 (SEQ ID NO:420) or a 1:1 molar mixture of the Adriase-MtrA pair was analyzed using a Superdex S200 10/300 GL gel size-exclusion column (20 mM HEPES-NaOH pH 7.5, 50 mM NaCl, 100 mM KCl) coupled to a miniDAWN Tristar Laser photometer (Wyatt).
To investigate, whether the OB fold alone is sufficient to bind Adriase in the above experimental set-up, we repeated the same analysis using M. jannaschii Adriase^ΔNTN (SEQ ID NO: 519). Specifically, size exclusion chromatography using 50 μl 200 μM M. jannaschii Adriase^ΔNTN (SEQ ID NO: 519), M. jannaschii MtrA^Δ194-245 (SEQ ID NO:420) or a 1:1 molar mixture of the Adriase-MtrA pair was analyzed using a Superdex S200 10/300 GL gel size-exclusion column (20 mM HEPES-NaOH pH 7.5, 50 mM NaCl, 100 mM KCl) coupled to a miniDAWN Tristar Laser photometer (Wyatt).

[5] = tested on: (15)KDPGA(10) and PGA(10F) substrates; settings: 100 nM enzyme, 15 μM substrates, 8 min, 85° C. (M. jannaschii variants) or 50° C. (M. mazei)
Experimental: In a second set of experiments, the ligase activity of Adriase variants was tested with (15)KDPGA(10)(SEQ ID NO: 419) and PGA(10F)(SEQ ID NO:414) substrates. […] Furthermore, M. mazei Adriase (SEQ ID NO: 380) was tested for ligase activity with the same M. jannaschii peptide substrates to assess whether variety within the recognition motif is tolerated. The read out for Adriase activity was the detection of fluorescently labeled ligation product (10)KDPGA(10F)(SEQ ID NO: 418).
The reaction was performed in optimized M. jannaschii Adriase buffer (20 mM MES-NaOH pH 5.8, 150 mM NaCl, 100 mM KCl, 5 mM TCEP-HCl) for 8 min at 85° C. when M. jannaschii derived Adriase variants were used and at 50° C. in optimized M. mazei Adriase buffer (50 mM acetic acid, 50 mM MES, 50 mM HEPES, 100 mM NaCl, 50 mM KCl, 5 mM TCEP, pH 7.0) when M. mazei Adriase was used and stopped by addition of 2% SDS. Samples were then separated on 12% polyacrylamide gels (Thermo) and fluorescent products visualized by UV light.

[6] = tested on: Ub-(5)KDPGA(15)-Strep and PGA(10); experiment: Test for hydrolase activity with protein substrate
Experimental: To investigate, whether this characteristic also holds true with protein substrates, the above experiment was repeated with Ub-(5)KDPGA(15)-Strep substrate (SEQ ID NO: 522). Specifically, 25 μM Ub-(5)KDPGA(15)-Strep and 25 μM PGA(10)(SEQ ID NO: 454) were incubated with either 25 nM or 25 μM M. mazei Adriase (SEQ ID NO: 380) in optimized buffer (50 mM acetic acid, 50 mM MES, 50 mM HEPES, 100 mM NaCl, 50 mM KCl, 5 mM TCEP, pH 7.0) at 50° C. After 140 s, 320 s, 575 s, 1002 s, 30 min or 90 min, aliquots were removed and mixed with 2% SDS to stop the reaction.

[7] = tested on: Ub-(5)KDPGA(15) and PGA(15)-Ub substrates; experiment: M. mazei Adriase protein-protein ligation kinetics
Experimental: Specifically, different concentrations (0.39 μM, 0.78 μM, 1.56 μM, 3.13 μM, 6.25 μM, 12.5, 25, 50 or 100 μM; three independent experiments per concentration) of Ub-(5)KDPGA(15)(SEQ ID NO: 520) and PGA(15)-Ub (SEQ ID NO: 521) substrates were incubated with 0.0025 molar equivalents of M. mazei Adriase (SEQ ID NO: 380) in reaction buffer (50 mM acetic acid, 50 mM MES, 50 mM HEPES, 100 mM NaCl, 50 mM KCl, 5 mM TCEP, pH 7.0) at 50° C. At various time points (0 s, 28 s, 55 s, 88 s, 126 s, 171 s, 225 s, 295 s, 393 s, 554 s, 1125 s, 1670 s and 2250 s), an aliquot of the reaction was mixed with 2% SDS. Samples were then separated on 12% polyacrylamide gels (Thermo) and stained with Coomassie blue (FIG. 21A). The band intensities of educt and product bands were quantified using ImageJ v1.52a, assuming that all ubiquitin molecules bind the coomassie dye in a similar manner. The results were used to plot the time courses for each experiment (FIG. 21B).
the data fit for each time course allowed the determination of the maximum rate parameter for each concentration. These maximum rates were then used in a Michaelis-Menten plot (FIG. 21C) to approximate kinetic measures.

[8] = tested on: (5)KDPGA(10F) and PGA(10) substrates; experiment: M. mazei Adriase peptide-peptide ligation time courses and Michaelis-Menten plot; format: biochemical; settings: 50° C.
Text: The band intensity of the respective fluorescently labeled PGA(10F) peptides (SEQ ID NO: 455), which were released by the ligation reactions were quantified using ImageJ v1.50i and subtracted from background signal in control reactions without PGA(10) peptides.

[9] = tested on: Ub-(5)KDPGA(15) and PGA(15)-Ub; experiment: Comparison with Sortase: Adriase-catalyzed protein-protein ligation
Experimental: as §1

[10] = tested on: Ub-(5)KDPGA(10) and PGA(10)-sdAb/CyP/GST; experiment: Ligation of unrelated protein substrates (sdAb, CyP, GST); format: biochemical, M. mazei; settings: 0.9 μM enzyme, 3.7 μM substrates, 37° C., 10 min
[11] = tested on: (15)KDPGA(10) and PGA(10F) substrates; settings: FIG. 14
Experimental: Specifically, 15 μM of (15)KDPGA(10)(SEQ ID NO: 419) and 15 μM of fluorophore-coupled PGA(10F)(SEQ ID NO: 374) substrates were incubated optimized M. jannaschii Adriase buffer (20 mM MES-NaOH pH 5.8, 150 mM NaCl, 100 mM KCl, 5 mM TCEP-HCl) for 8 min at 80° C. with either various Adriase concentrations. The assay was performed with either 7 nM, 21 nM, 62 nM, 185 nM, 556 nM, 1666 nM, 5000 nM or 15000 nM N-terminally modified Adriase (N-His, SEQ ID NO: 450) or 0 nM, 7 nM, 21 nM or 62 nM unmodified Adriase (SEQ ID NO: 385) and stopped by addition of 2% SDS. Samples were then separated on 12% polyacrylamide gels (Thermo) and fluorescent products visualized by UV light.

LPETG (primary) and GGG (secondary) substrates (Staphylococcus aureus, UniProt Q2FV99), sequence (Q2FV99 60-206): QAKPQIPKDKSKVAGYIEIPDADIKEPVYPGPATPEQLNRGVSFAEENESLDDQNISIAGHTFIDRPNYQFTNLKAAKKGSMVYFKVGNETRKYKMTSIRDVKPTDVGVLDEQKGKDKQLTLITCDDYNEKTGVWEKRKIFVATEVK

B1: SrtA: Staphylococcus aureus Sortase A without N-terminal membrane anchor (residues 1-59), N-terminal His6-tag (protein, listed as Staphylococcus aureus)
chain: MRGSHHHHHHGSQAKPQIPKDKSKVAGYIEIPDADIKEPVYPGPATPEQLNRGVSFAEENESLDDQNISIAGHTFIDRPNYQFTNLKAAKKGSMVYFKVGNETRKYKMTSIRDVKPTDVEVLDEQKGKDKQLTLITCDDYNEKTGVWEKRKIFVATEVK
modifications: N-terminal His6-tag; His6-SrtA 1-59
notes: Staphylococcus aureus Sortase A without N-terminal membrane anchor (residues 1-59), N-terminal His6-tag
Q: What does the source list for B1?
A: Kcat Ligation/Kcat Hydrolysis [1]: ≈ 3.3; Km ([2]; primary substrate used in excess, read-out: KM for the secondary substrate): 196 µM; Km ([2]; secondary substrate used in excess, read-out: KM for the primary substrate): 7330 µM; ligase activity at low substrate concentrations [3]: only spurious ligase activity

B2: SrtA5* (protein, listed as Staphylococcus aureus)
chain: MQAKPQIPKDKSKVAGYIEIPDADIKEPVYPGPATREQLNRGVSFAEENESLDDQNISIAGHTFIDRPNYQFTNLKAAKKGSMVYFKVGNETRKYKMTSIRNVKPTAVEVLDEQKGKDKQLTLITCDDYNEETGVWETRKIFVATEVKLEHHHHHH
modifications: C-terminal His-tag; SrtA5* delta 1-59 with C-terminal His-tag
Q: For B2, which “increased rates compared to the wild type enzyme” value ([2]; Chen (2011)) is on record?
A: Its value is “up to 120 ×”.

Q: What about the Km ([2]; Chen (2011), read-out: KM GGG) of the same molecule?
A: Its Km is 4700 µM.

Q: And the Km ([2]; Chen (2011), read-out: KM LPETG)?
A: The Km was 170 µM.

Q: What about the “ligase activity at low substrate concentrations” value [3] of the same molecule?
A: The value was “only spurious ligase activity”.

B3: Adriase^ΔOB S1A (protein)
chain: ALIICYYGKNGAVIGGDRRQIFFRGSEENRKILEEKLYSGEIKSEEELYKLAEKLNIKIIIEDDREKVRKISDSVVCGEVRSLGIDAKRRRVYATKGKCAIVDILNDTVTNQTIKEGFGIVVLGNRFLKKKAEEELKRTAKLFPMMPIQQIEDAIKEIFEKLKWHPTVSKEYDIYSVNKYEKNFEEVIKKDIESLFKYREQGSHHHHHH
Q: With B3 as the molecule, how does the “complex formation with MtrA” value [4] read?
A: Its value is “decreased affinity”.

B4: Adriase^ΔOB: M. jannaschii Adriase without OB-like domain (Δ203-293), C-terminal His6-tag (protein)
chain: B3 chain with A1S
modifications: C-terminal His6-tag; M. jannaschii Adriase without OB, with C-terminal His-tag
Q: For B4, which “ligase activity (fluorescent ligation product)” value [5] is on record?
A: The value was “still catalytically active”.

B5: M. jannaschii Adriase^ΔNTN (protein, listed as Methanosarcina mazei)
chain: MEQLRKQLIDFGKVMSIVNKIVKNGEIGVIKDGKLHLYDDYIAIDKIDPNPKVFKVVDVEGNFKDGDIVVIENGDMKIKGTNEKVTTKYIIIHKGSHHHHHH
modifications: Methanosarcina mazei Go1; Adriase NTN with C-terminal His-tag
Q: With B5 as the molecule, how does the “complex formation with MtrA” value [4] read?
A: The value was “no complex is formed”.

B6: M. mazei Adriase: Methanosarcina mazei Adriase (MM_2909), archaeal peptide recombinase, C-terminal His6-tag; Strep-, Myc-, HA-tagged versions used as pulldown bait (protein)
chain: TLVIAFIGKNGAVMAGDMREITFEGEKPDREKLEKELYSGSIVTDEEMQKKAEEFGVKITVADCKEKVSERNGVLVGEVSSAEGGVVKKRRLYASAGNFAIAELINTEMTLTSQGKGSNFIAFGNEFTKQVANKCFKDNWTKKSNLQDAVKILILCMETVARKTASVSKQFMIVQTASNADVLKVVEKDRNCGSHHHHHH
modifications: C-terminal His6-tag; M. mazei Adriase with C-terminal His-tag
notes: Methanosarcina mazei Adriase (MM_2909), archaeal peptide recombinase, C-terminal His6-tag; Strep-, Myc-, HA-tagged versions used as pulldown bait
Q: Which product formation ([6]; enzyme:substrate 1:1000 (1×), 30 minutes) does the source give for B6 here?
A: The product formation was ~ 50%.

Q: And the “amount of ligation product” value ([6]; prolonged incubation (90 min), 1000× increased Adriase concentration)?
A: Its value is ~ 50%.

Q: And the “ligase activity (fluorescent ligation product)” value [5]?
A: The value was “showed activity”.

Q: And the ligation rate coefficient ([7]; 25 μM substrate concentration)?
A: The ligation rate coefficient was 0.74 ± 0.05 s⁻¹.

Q: What about the ligation rate coefficient ([7]; 50 μM substrate concentration) of the same molecule?
A: The ligation rate coefficient was 0.88 ± 0.07 s⁻¹.

Q: What about the ligation rate coefficient ([7]; 100 μM substrate concentration) of the same molecule?
A: Its ligation rate coefficient is 0.90 ± 0.14 s⁻¹.

Q: And the “substrate concentration at half-maximum rate” value ([7]; each substrate, equimolar, protein-protein ligation, 50° C., pH 7.0)?
A: The value was 2.2 µM.

Q: What about the maximum rate ([7]; protein-protein ligation, 0.0025 molar equivalents enzyme, 50° C., pH 7.0) of the same molecule?
A: Its maximum rate is 0.92 ligations per enzyme and second.

Q: And the maximum rate ([8]; 0.001 molar equivalents enzyme, pH 7.0, Michaelis-Menten model)?
A: Its maximum rate is ~ 2.25 ligations per enzyme and second.

Q: And the “substrate concentration at half maximal reaction speed” value ([8]; each substrate, pH 7.0)?
A: The value was ~ 9 μM.

Q: What about the “substrates ligated (on a molar basis)” value ([9]; 3.13 μM each substrate, enzyme:substrate ratio 1:400) of the same molecule?
A: Its value is ~ 50%.

Q: What about the “yield compared to Sortase” value ([9]; 100 μM substrates) of the same molecule?
A: The value was ~ 1.7 ×.

Q: And the “ligase activity / ligation rate compared to SrtA5*” value ([9]; 100 μM substrates, Adriase 0.0025 molar equivalents, 50° C., SrtA5* 37° C.)?
A: Its value is ~ 40 × and > 40 ×.

Q: And the “ligase activity / ligation rate compared to SrtA” value ([9]; 100 μM substrates, Adriase 0.0025 molar equivalents, 50° C., SrtA 37° C.)?
A: Its value is ~ 4000 × and > 4000 ×.

Q: What about the ligation yield ([9]; compared to ~30% in the Sortase reactions) of the same molecule?
A: The ligation yield was ~ 50%.

Q: What about the “ligation of protein pairs” value [10] of the same molecule?
A: The value was “efficiently ligates all three protein pairs”.

B7: 428-57: M. jannaschii Adriase without the insertion element that distinguishes Adriase from proteasome subunits, C-terminal His6 (protein)
chain: SLIICYYGKNGAVIGGDRRQIFFRGSGKIIIEDDREKVRKISDSVVCGEVRSLGIDAKRRRVYATKGKCAIVDILNDTVTNQTIKEGFGIVVLGNRFLKKKAEEELKRTAKLFPMMPIQQIEDAIKEIFEKLKWHPTVSKEYDIYSVNKYEKNFEEVIKKDIESLFKYREQLRKQLIDFGKVMSIVNKIVKNGEIGVIKDGKLHLYDDYIAIDKIDPNPKVFKVVDVEGNFKDGDIVVIENGDMKIKGTNEKVTTKYIIIHKGSHHHHHH
modifications: C-terminal His6; M. jannaschii Adriase 28-57, C-terminal His6
Q: With B7 as the molecule, how does the “ligase activity (fluorescent ligation product)” value [5] read?
A: The value was “abolishes ligase activity”.

B8: M. jannaschii Adriase: Methanocaldococcus jannaschii Adriase (MJ_0548) with C-terminal His6-tag (protein)
chain: SLIICYYGKNGAVIGGDRRQIFFRGSEENRKILEEKLYSGEIKSEEELYKLAEKLNIKIIIEDDREKVRKISDSVVCGEVRSLGIDAKRRRVYATKGKCAIVDILNDTVTNQTIKEGFGIVVLGNRFLKKKAEEELKRTAKLFPMMPIQQIEDAIKEIFEKLKWHPTVSKEYDIYSVNKYEKNFEEVIKKDIESLFKYREQLRKQLIDFGKVMSIVNKIVKNGEIGVIKDGKLHLYDDYIAIDKIDPNPKVFKVVDVEGNFKDGDIVVIENGDMKIKGTNEKVTTKYIIIHKGSHHHHHH
modifications: C-terminal His6-tag; M. jannaschii Adriase with C-terminal His-tag
Q: Which “rate of product generation compared to N-terminally modified Adriase” value [11] does the source give for B8 here?
A: Its value is ~ 200 ×.

B9: M. jannaschii Adriase^S1A (protein)
chain: B8 chain with S1A
modifications: C-terminal His-tag; M. jannaschii Adriase S1A mutant with C-terminal His-tag
Q: What does the source list for B9?
A: ligase activity (fluorescent ligation product) [5]: no ligation product is observed; complex formation with MtrA [4]: form a heterodimer

— patent US20260275319A1, “ARCHAEAL PEPTIDE RECOMBINASE – A NOVEL PEPTIDE LIGATING ENZYME” (MAX-PLANCK-GESELLSCHAFT ZUR FÖRDERUNG DER WISSENSCHAFTEN …, priority 2019, published 2026)
